Test [1] has as its target T1, recombinant human PD-L1 (Sino Biological Inc.) (human, UniProt Q9NZQ7 19-239). Put plainly: SPR, Biacore X100. The protocol: This instrument utilizes optical surface plasmon resonance technology to detect the association and dissociation between the molecules coated on the biochip and the molecules to be tested. Association constants and dissociation constants were analyzed and calculated by Biacore X100 evaluation software. […]
Background: In SPR one partner is held on a chip, and binding of the other changes the refractive index at the surface.

Test [2] deals with T1, recombinant human PD-L1 (Sino …). Put plainly: ELISA, human PD-L1 coated. The protocol:
(§1) A 96-well high-adsorption ELISA plate was coated with 1 μg/mL of the recombinant human PD-L1 (Sino Biological Inc.) at 100 μL per well using carbonate buffer solution, pH=9.6 at 4° C. overnight. The plate was washed 5 times with PBST, and then blocked using PBST with 1% BSA, 300 μL/well, and incubated at 25° C. for 1 hour, and then washed 5 times with PBST. […] The horseradish peroxidase-labeled anti-human IgG antibody (Chemicon, catalog number AP309P) diluted 1:10000 in PBST with 1% BSA was then added, 100 μL per well, and incubated at 25° C. for 1 hour. The plate was washed 5 times with PBST. The colorimetric substrate TMB was added, 100 μL/well, and developed at room temperature for 10 minutes. 1M H₂SO₄ was added, 100 μL/well, to stop the development. The absorbance at 450 nm was read on a microplate reader.
(In general: An ELISA detects its analyte on a solid surface through an enzyme-linked reagent.)

Test [3] deals with recombinant mouse PD-L1 (Sino Biological Inc.) (mouse, UniProt Q9EP73 19-238). The test is described as follows: ELISA, plate coated with 1 ug/mL recombinant mouse PD-L1, anti-human IgG-HRP, OD450. The protocol: A 96-well high-adsorption ELISA plate was coated with 1 μg/mL of the recombinant human PD-L1, cynomolgus PD-L1, rat PD-L1 and mouse PD-L1 (all purchased from Sino Biological Inc.), at 100 μL per well using carbonate buffer solution, pH=9.6 at 4° C. overnight. The plate was washed 5 times with PBST, and then blocked using PBST with 1% BSA, 300 μL/well, and incubated at 25° C. for 1 hour, and then washed 5 times with PBST. The chimeric anti-human PD-L1 antibody samples serially diluted in PBST with 1% BSA were added, 100 μL/well, incubated at 25° C. for 1 hour, and then washed 5 times with PBST. The horseradish peroxidase-labeled anti-human IgG antibody (Chemicon, catalog number AP309P) diluted 1:10000 in PBST with 1% BSA was then added, 100 μL per well, and incubated at 25° C. for 1 hour. The plate was washed 5 times with PBST. The colorimetric substrate TMB was added, 100 μL/well, and developed at room temperature for 10 minutes. 1M H₂SO₄ was added, 100 μL/well, to stop the development. The absorbance at 450 nm was read on a microplate reader.

Test [4] concerns the target recombinant human PD1 (Sino Biological Inc.) (human, UniProt Q15116 25-167). Put plainly: ELISA, plate coated with 1 ug/mL recombinant human PD1, anti-human IgG-HRP, OD450; antibody concentration not shown. The procedure:
as §1, with “The” for “A 96-well high-adsorption ELISA plate was coated with 1 μg/mL of the recombinant human PD-L1 (Sino Biological Inc.) at 100 μL per well using carbonate buffer solution, pH=9.6 at 4° C. overnight. The”

In test [5] the target is T2, recombinant human CD80 (Sino Biological Inc.) (human, UniProt P33681 35-242).
T2 sequence (looked up): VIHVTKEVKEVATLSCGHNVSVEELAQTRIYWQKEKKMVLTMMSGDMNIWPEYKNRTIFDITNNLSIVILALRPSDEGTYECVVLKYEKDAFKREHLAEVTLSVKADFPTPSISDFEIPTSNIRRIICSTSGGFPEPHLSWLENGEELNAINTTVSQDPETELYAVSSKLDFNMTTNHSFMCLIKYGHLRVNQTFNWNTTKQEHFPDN
Put plainly: ELISA, plate coated with 1 ug/mL recombinant human CD80 (printed B7-1), anti-human IgG-HRP, OD450; antibody concentration not shown. The protocol:
as §1, with “The” for “A 96-well high-adsorption ELISA plate was coated with 1 μg/mL of the recombinant human PD-L1 (Sino Biological Inc.) at 100 μL per well using carbonate buffer solution, pH=9.6 at 4° C. overnight. The”

The target in test [6] is T3, recombinant human PD-L2 (Sino Biological Inc.) (human, UniProt Q9BQ51 20-219).
T3 sequence (looked up): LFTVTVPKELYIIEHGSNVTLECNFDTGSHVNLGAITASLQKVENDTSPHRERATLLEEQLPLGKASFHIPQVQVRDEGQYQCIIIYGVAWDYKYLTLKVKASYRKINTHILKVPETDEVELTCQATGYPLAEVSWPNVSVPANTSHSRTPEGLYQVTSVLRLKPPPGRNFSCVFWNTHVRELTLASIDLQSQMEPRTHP
Put plainly: ELISA, plate coated with 1 ug/mL recombinant human PD-L2 (printed B7-DC), anti-human IgG-HRP, OD450; antibody concentration not shown. The protocol: as §1, with “The” for “A 96-well high-adsorption ELISA plate was coated with 1 μg/mL of the recombinant human PD-L1 (Sino Biological Inc.) at 100 μL per well using carbonate buffer solution, pH=9.6 at 4° C. overnight. The”

In test [7] the target is T4, recombinant human PD-L1-Fc protein (human, UniProt Q9NZQ7 19-238, limits assumed).
T4 construct: Prepared by Beijing Hanmi Pharmaceutical; The GenBank number is NP_001254635.1
The test is described as follows: blocking ELISA, plate coated with 1 ug/mL human PD-L1-Fc; blocked ligand biotin-labelled PD-1-Fc at 20 nM final, streptavidin-HRP, OD450. The procedure: as §1, with “PD-L1-Fc” for “PD-L1 (Sino Biological Inc.)”, “Streptavidin-HRP (BD Pharmingen,” for “horseradish peroxidase-labeled anti-human IgG antibody (Chemicon,”, “554066)” for “AP309P)”, “1:1000” for “1:10000”

In test [8] the target is T1, recombinant human PD-L1 (Sino …). Put plainly: direct binding ELISA, plate coated with 1 ug/mL recombinant human PD-L1, anti-human IgG-HRP, OD450; the curve rises, the sheet labels the half-maximal value IC50. The protocol: as §1

T1 sequence (Q9NZQ7 19-239 limits assumed): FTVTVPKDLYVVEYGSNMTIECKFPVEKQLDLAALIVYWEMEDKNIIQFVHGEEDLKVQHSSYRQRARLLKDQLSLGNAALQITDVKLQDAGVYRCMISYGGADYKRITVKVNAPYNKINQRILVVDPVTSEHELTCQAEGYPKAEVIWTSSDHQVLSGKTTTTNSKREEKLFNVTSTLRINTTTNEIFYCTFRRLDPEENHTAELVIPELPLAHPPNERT
T4 sequence (Q9NZQ7 19-238 limits assumed): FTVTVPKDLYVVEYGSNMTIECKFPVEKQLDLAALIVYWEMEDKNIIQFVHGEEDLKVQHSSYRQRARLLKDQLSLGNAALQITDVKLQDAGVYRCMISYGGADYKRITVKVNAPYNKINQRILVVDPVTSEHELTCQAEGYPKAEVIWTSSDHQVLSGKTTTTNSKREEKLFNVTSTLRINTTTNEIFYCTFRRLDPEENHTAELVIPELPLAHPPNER
Sequence of recombinant mouse PD-L1 (Sino Biological Inc.) (Q9EP73 19-238 limits assumed): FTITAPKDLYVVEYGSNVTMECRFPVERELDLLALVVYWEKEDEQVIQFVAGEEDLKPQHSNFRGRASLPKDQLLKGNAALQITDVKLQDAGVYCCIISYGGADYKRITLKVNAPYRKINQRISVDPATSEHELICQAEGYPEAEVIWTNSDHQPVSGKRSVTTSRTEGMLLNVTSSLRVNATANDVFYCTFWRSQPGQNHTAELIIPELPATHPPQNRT
Sequence of recombinant human PD1 (Sino Biological Inc.) (Q15116 25-167 limits assumed): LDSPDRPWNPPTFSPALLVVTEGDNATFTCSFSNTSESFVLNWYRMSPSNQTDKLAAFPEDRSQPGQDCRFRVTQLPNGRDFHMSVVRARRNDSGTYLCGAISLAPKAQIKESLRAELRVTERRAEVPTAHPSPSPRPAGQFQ

B1: chimeric anti-human PD-L1 monoclonal antibody (antibody, human IgG1, kappa, V domains shown)
VH: EVQLQQSGAELVKPGASVKLSCTASGFNIEDTYIHWVMQRPEQGLEWIGRIDPANGNTKYDPKFQGKATITADTSSNTAYLQLSSLTSEDTAVYYCGRGLGAWFAYWGQGTLVTVSA
VL: DIVMTQSHKVMSTSVGDRVTITCKASQDVHTAVAWIHQKPGQSPKLLIYSASNRYTGVPDRFTGSGSGTDFTFTISSVQAEDLAVYYCQQHYITPLTFGAGTTLELKR
notes: expressed in ExpiCHO cells; also called Chimeric mAb; Chimeric antibody
For orientation: Kd means the equilibrium constant for the complex coming apart. One may read the koff as the first-order rate constant of dissociation. The term kon denotes a measure of how fast the partners come together. A word on the EC50: it is the concentration giving half of the maximal effect. The term IC50 denotes the concentration needed to halve the response being measured. B1: in test [1], the Kd is 1.17 nM. In test [1], the koff worked out at 0.000594 s⁻¹. Moreover, in test [1], the kon stood at 507000 M⁻¹ s⁻¹. For the same molecule, the figures for the half-maximal effective concentration (EC50) in test [2] and in test [8] were 0.066 nM and 0.021 nM, respectively. For the same molecule, the binding result is “no binding (tested: about 20 nM (last point on the log axis))” in test [3], “no binding” in test [4], “no binding” in test [5] and “no binding” in test [6]. The IC50 in test [7] was 1.08 nM.

(Values after US20240301068A1 (BEIJING HANMI PHARMACEUTICAL, published 2024).)
